Data reported in the supplement of paper PMC12667976.
± gives the standard error.

B1: library; numbered along this chain (parent)
chain: MATDAALRRLLRLHRTEIAVAVDSAFPLLHALADHDVVPEDKFQETLHLKEKEGCPQAFHALLSWLLTQDSTAILDFWRVLFKDYNLERYGRLQPILDSFPKDVDLSQPRKGRKPPAVPKALVPPPRLPTKRKASEEARAAAPAALTPRGTASPGSQLKAKPPKKPESSAEQQRLPLGNGIQTMSASVQRAVAMSSGDVPGARGAVEGILIQQVFESGGSKKCIQVGGEFYTPSKFEDSGSGKNKARSSSGPKPLVRAKGAQGAAPGGGEARLGQQGSVPAPLALPSDPQLHQKNEDECAVCRDGGELICCDGCPRAFHLACLSPPLREIPSGTWRCSSCLQATVQEVQPRAEEPRPQEPPVETPLPPGLRSAGEEVRGPPGEPLAGMDTTLVYKHLPAPPSAAPLPGLDSSALHPLLCVGPEGQQNLAPGARCGVCGDGTDVLRCTHCAAAFHWRCHFPAGTSRPGTGLRCRSCSGDVTPAPVEGVLAPSPARLAPGPAKDDTASHEPALHRDDLESLLSEHTFDGILQWAIQSMARPAAPFPS

Variants of: B1
Assay: AIRE transcriptional activation functional score (insulin promoter-GFP; nonsense median 0, synonymous median 1) (normalised score); higher = higher AIRE activity (more reporter activation)
Conditions: with insulin promoter-GFP reporter in HEK293
Description: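 Deep mutational scan of full-length human AIRE (codon-optimized cDNA, DT-POPCode NNN libraries over three regions) integrated at a Bxb1 landing pad in HEK293 cells carrying an insulin core promoter-GFP reporter at a Flp-In site. Cells were sorted for the top 10% GFP about 14 days after transfection. Variant frequency log-ratios (select vs non-select, TileSeq) were rescaled so that the nonsense median is 0 and the synonymous median is 1, then averaged over biological replicates.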

Variant	AIRE transcriptional activation functional score
D70Y	-0.642 ± 0.49
R378H	0.92 ± 0.31
T463D	1.54 ± 0.082
T463N	0.736 ± 0.57
T463L	1.06 ± 0.14
T130C	1.38 ± 0.32
H523G	1.65 ± 0.092
C299K	0.668 ± 0.1
S185G	0.881 ± 0.2
V420R	1.03 ± 0.23
R190G	0.592 ± 0.14
R190K	0.53 ± 0.049
S332T	1.23 ± 0.26
S332H	0.932 ± 0.096
A142P	0.882 ± 0.59
A142F	1.16 ± 0.13
K221V	0.663 ± 0.27
E383I	0.922 ± 0.27
E383Q	0.74 ± 0.27
L67W	0.0659 ± 0.065
G305K	1.08 ± 0.11
Q358H	1.12 ± 0.12
R473P	0.607 ± 0.32
L10K	-1.76 ± 0.75

Variant	AIRE transcriptional activation functional score
H415E	1.32 ± 0.05
G438M	1.31 ± 0.048
G204Q	0.897 ± 0.17
G204E	0.847 ± 0.05
S234V	1.19 ± 0.26
E353Q	1.18 ± 0.16
L327W	1.69 ± 0.054
L327N	1.37 ± 0.07
L327D	0.96 ± 0.2
P357N	1.32 ± 0.045
P357S	0.935 ± 0.12
F453R	0.106 ± 0.18
E485Y	0.948 ± 0.18
Q108P	0.669 ± 0.36
Q275M	1.04 ± 0.033
Q275H	1.01 ± 0.13
F82H	0.0485 ± 0.13
V104T	0.284 ± 0.14
V38S	-0.704 ± 0.47
V38K	0.354 ± 0.16
K294C	1 ± 0.18
P326V	1.41 ± 0.25
P326W	1.08 ± 0.2
G112E	1.23 ± 0.084

Variant	AIRE transcriptional activation functional score
L366E	1.32 ± 0.051
L366R	1.1 ± 0.16
L66P	0.349 ± 0.9
T364L	1.22 ± 0.37
V188S	0.447 ± 0.28
A482N	1.2 ± 0.25
D41T	0.827 ± 0.14
Q426H	1.18 ± 0.14
I181S	0.834 ± 0.54
D502M	0.261 ± 0.031
K222H	0.644 ± 0.37
K222N	0.679 ± 0.078
K222S	0.847 ± 0.17
E229Y	-0.363 ± 0.21
Q349T	1.12 ± 0.21
P162F	1.37 ± 0.11
K395W	0.234 ± 0.056
S196G	0.938 ± 0.23
E363Q	0.775 ± 0.28
L7N	-0.876 ± 0.22
I533V	0.411 ± 0.5
I533Y	0.199 ± 0.054
C472L	-0.0415 ± 0.19
C472W	-0.112 ± 0.06

Variant	AIRE transcriptional activation functional score
L406T	0.633 ± 0.27
A258R	0.0043 ± 0.35
T46A	0.0907 ± 0.95
A540F	0.417 ± 0.032
S249D	0.114 ± 0.48
S249E	-0.0377 ± 0.067
I330V	0.684 ± 0.36
I330W	0.987 ± 0.079
P365S	1.14 ± 0.16
P365H	0.594 ± 0.1
G369E	1.68 ± 0.059
A141L	1.36 ± 0.4
T504G	0.95 ± 0.17
T480Q	0.203 ± 0.14
E376V	1.24 ± 0.12
P266T	1.05 ± 0.18
F525V	0.609 ± 0.6
F525A	0.406 ± 0.24
G268N	0.988 ± 0.29
G268K	0.831 ± 0.27
A451V	0.438 ± 0.078
H396W	1.28 ± 0.058
K161E	0.442 ± 0.38
E167G	1.02 ± 0.37

Variant	AIRE transcriptional activation functional score
D515S	0.474 ± 0.19
D515F	0.156 ± 0.1
H448A	0.696 ± 0.075
I74M	0.0325 ± 0.12
Q225V	-0.115 ± 0.27
R8D	0.401 ± 0.51
W335G	1.27 ± 0.12
E298Y	0.785 ± 0.38
E298A	0.0161 ± 0.26
F230V	0.617 ± 0.11
L495D	1.68 ± 0.12
V206P	0.762 ± 0.22
V206K	0.691 ± 0.28
V206W	0.352 ± 0.03
P460S	0.714 ± 0.33
Y90C	0.198 ± 0.28
R445G	0.978 ± 0.24
R445I	0.985 ± 0.14
Q530V	-0.295 ± 0.23
P481Q	0.501 ± 0.69
A403V	1.29 ± 0.082
G54H	0.133 ± 0.29
R328P	1.22 ± 0.21
P361F	1.18 ± 0.14

Variant	AIRE transcriptional activation functional score
F543P	1.13 ± 0.06
F543T	0.669 ± 0.16
P497A	1.16 ± 0.32
P497T	1.09 ± 0.23
P497I	1.13 ± 0.2
P490H	0.603 ± 0.18
L370T	1.03 ± 0.069
A532Q	0.186 ± 0.072
H60W	0.431 ± 0.35
G263R	0.812 ± 0.21
R303T	1.36 ± 0.21
Q189M	-0.352 ± 0.059
Q189L	0.207 ± 0.27
E522D	0.925 ± 0.26
G218W	-0.332 ± 0.1
Q157G	1.08 ± 0.46
Q157C	1.27 ± 0.41
D36E	1.34 ± 0.57
P499N	0.266 ± 0.5
L63V	0.617 ± 0.34
P286S	0.834 ± 0.37
P286C	0.46 ± 0.43
I224W	1.11 ± 0.12
I224N	0.402 ± 0.21

Variant	AIRE transcriptional activation functional score
L81K	-1.81 ± 0.23
L81N	1.87 ± 0.082
F318W	0.907 ± 0.023
F318C	1.32 ± 0.22
A271F	0.885 ± 0.31
A271C	1 ± 0.56
R433T	0.808 ± 0.18
R433C	0.922 ± 0.13
A264W	1.57 ± 0.028
E137V	0.84 ± 0.52
E137Y	1.71 ± 0.65
H507F	1.56 ± 0.1
V348M	0.509 ± 0.035
V348L	1.09 ± 0.22
T390D	0.833 ± 0.089
T390V	1.25 ± 0.15
T344S	1.06 ± 0.15
R272S	1.02 ± 0.3
R272A	0.71 ± 0.27
S521V	0.258 ± 0.23
R471M	1.36 ± 0.14
G408W	1.34 ± 0.043
G408I	0.636 ± 0.32
